From patent US20130081152

Tested on: T1, His-tagged recombinant PbGDPS_SSU (expressed in E. coli from pET15b)
T1 sequence: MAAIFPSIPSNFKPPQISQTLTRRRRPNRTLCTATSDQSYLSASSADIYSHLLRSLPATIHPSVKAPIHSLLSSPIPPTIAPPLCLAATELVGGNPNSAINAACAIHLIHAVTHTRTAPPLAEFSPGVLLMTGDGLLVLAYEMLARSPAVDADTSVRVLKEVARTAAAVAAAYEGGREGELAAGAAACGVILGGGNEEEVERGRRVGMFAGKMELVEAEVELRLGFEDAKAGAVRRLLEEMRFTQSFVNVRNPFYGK

His-tagged recombinant PbGDPS_LSU (truncated, expressed in E. coli from pBAD202/D-TOPO)
prenyltransferase activity: higher prenyltransferase activity than either PbGDPS_LSU or PbGDPS_SSU alone
